# Assay results as given in patent US11826404B2, “Plasminogen treatment of conditions associated with PAI-1 overexpression” (PROMETIC BIOTHERAPEUTICS, INC., priority 2017, dated 2023).
# B1: plasminogen: Glu-plasminogen purified from pooled human plasma, purity above 95%; used in Example 2 (protein, UniProt P00747 20-810, looked up)
# Plasminogen: EPLDDYVNTQGASLFSVTKKQLGAGSIEECAAKCEEDEEFTCRAFQYHSKEQQCVIMAENRKSSIIIRMRDVVLFEKKVYLSECKTGNGKNYRGTMSKTKNGITCQKWSSTSPHRPRFSPATHPSEGLEENYCRNPDNDPQGPWCYTTDPEKRYDYCDILECEEECMHCSGENYDGKISKTMSGLECQAWDSQSPHAHGYIPSKFPNKNLKKNYCRNPDRELRPWCFTTDPNKRWELCDIPRCTTPPPSSGPTYQCLKGTGENYRGNVAVTVSGHTCQHWSAQTPHTHNRTPENFPCKNLDENYCRNPDGKRAPWCHTTNSQVRWEYCKIPSCDSSPVSTEQLAPTAPPELTPVVQDCYHGDGQSYRGTSSTTTTGKKCQSWSSMTPHRHQKTPENYPNAGLTMNYCRNPDADKGPWCFTTDPSVRWEYCNLKKCSGTEASVVAPPPVVLLPDVETPSEEDCMFGNGKGYRGKRATTVTGTPCQDWAAQEPHRHSIFTPETNPRAGLEKNYCRNPDGDVGGPWCYTTNPRKLYDYCDVPQCAAPSFDCGKPQVEPKKCPGRVVGGCVAHPHSWPWQVSLRTRFGMHFCGGTLISPEWVLTAAHCLEKSPRPSSYKVILGAHQEVNLEPHVQEIEVSRLFLEPTRKDIALLKLSSPAVITDKVIPACLPSPNYVVADRTECFITGWGETQGTFGAGLLKEAQLPVIENKVCNRYEFLNGRVQSTELCAGHLAGGTDSCQGDSGGPLVCFEKDKYILQGVTSWGLGCARPNKPGVYVRVSRFVTWIEGVMRNN
# Tests used:
# IL-6 mRNA [1] = assay: IL-6 mRNA expression by real-time PCR, bleomycin model, plasminogen combined with pirfenidone (Example 3); format: in vivo, mouse
# Experimental: (§1) Male C57BL6 mice are administered intratracheal instillation of bleomycin sulphate (0.007 mg/mouse) at day 0. Human plasminogen was administered subcutaneously at day 10 and day 14, at a dose of either 6 mg/kg, 20 mg/kg, or 60 mg/kg. Animals were sacrificed at day 21. Collagen was quantified by histologic analysis using the staining Red sirus staining (Fluorescence) and analysed at a magnification of 400×. Collagen quantification was performed by segmentation with Image Pro Premier software, and using a sample of 20 fields located in the inflammatory lesions of the lungs. The quantity of collagen has been reported for the total surface of the regions containing inflammatory lesions. This method of quantification allows exclusion of the endogenous content of collagen that is normally contained in the tissue. […] CTGF, IL-6 and PAI-1 mRNA expressions were quantified by real-time PCR using mouse Taqman® Gene-Expression assay normalized to HPRT1 endogenous control (Student's t-test).
# (§2) Pulmonary fibrosis in mice is induced by intratracheal instillation of the anticancer drug bleomycin into the mouse. […] Collagen was quantified by histologic analysis using the staining Red sirus staining (Fluorescence) and analysed as described in Example 2. IL-6 mRNA expression was quantified by real-time PCR using mouse Taqman® Gene-Expression assay normalized to HPRT1 endogenous control (Student's t-test).
# [2] = tested on: collagen in the inflammatory lesions of the lungs; assay: Collagen quantification in inflammatory lesions of the lungs, bleomycin model, plasminogen combined with pirfenidone (Example 3); format: in vivo, mouse; conditions: bleomycin-induced mice, day 28, FIG. 8
# Experimental: as §1, §2
# [3] = tested on: collagen in the inflammatory lesions of the lungs; assay: Collagen quantification in inflammatory lesions of the lungs, bleomycin-induced pulmonary fibrosis mouse model (Example 2); format: in vivo; conditions: human plasminogen 60 mg/kg subcutaneously at day 10 and day 14; bleomycin-induced mice; measured at day 21; FIG. 4
# Source text: (§3) Pulmonary fibrosis in mice is induced by intratracheal instillation of bleomycin into the mouse. Bleomycin is well-known anticancer drug. First, the bleomycin insult results in an acute inflammation as soon as day 1. Later at about day 10 to day 14, fibrotic events arise and create a chronic fibrotic condition. The bleomycin-induced mice is recognized as an animal model for pulmonary fibrosis. The evaluation of the activity of plasminogen is undertaken by treatment of the mice with plasminogen at appropriate time points. In the present study, plasminogen was administered at day 10 and day 14.
# (§4) Male C57BL6 mice are administered intratracheal instillation of bleomycin sulphate (0.007 mg/mouse) at day 0. Human plasminogen was administered subcutaneously at day 10 and day 14, at a dose of either 6 mg/kg, 20 mg/kg, or 60 mg/kg. […] Collagen was quantified by histologic analysis using the staining Red sirus staining (Fluorescence) and analysed at a magnification of 400×. Collagen quantification was performed by segmentation with Image Pro Premier software, and using a sample of 20 fields located in the inflammatory lesions of the lungs. The quantity of collagen has been reported for the total surface of the regions containing inflammatory lesions. This method of quantification allows exclusion of the endogenous content of collagen that is normally contained in the tissue. […]
# PAI-1 mRNA = PAI-1 mRNA expression by real-time PCR, bleomycin-induced pulmonary fibrosis mouse model (Example 2); format: in vivo; conditions: human plasminogen at all doses (6, 20, 60 mg/kg) subcutaneously at day 10 and day 14; bleomycin-induced mice; day 21; FIG. 7
# Source text: as §3, §4
# IL-6 mRNA [4] = assay: IL-6 mRNA expression by real-time PCR, bleomycin-induced pulmonary fibrosis mouse model (Example 2); format: in vivo; conditions: human plasminogen 6, 20 or 60 mg/kg subcutaneously at day 10 and day 14; bleomycin-induced mice; day 21; not dose-dependent; FIG. 6
# Source text: as §3, §4
# CTGF mRNA = CTGF mRNA expression by real-time PCR, bleomycin-induced pulmonary fibrosis mouse model (Example 2); format: in vivo; conditions: human plasminogen 6, 20 or 60 mg/kg subcutaneously at day 10 and day 14; bleomycin-induced mice; day 21; not dose-dependent; FIG. 5
# Source text: as §3, §4
Molecule,"IL-6 expression versus non-treated bleomycin-induced mice (IL-6 mRNA [1]; pirfenidone alone, 400 mg/kg oral once a day from day 7 to day 27, day 28, FIG. 9)","fibrosis (collagen expression in the inflammatory lesions of the lungs) ([2]; pirfenidone alone, 400 mg/kg oral once a day from day 7 to day 27)",collagen expression in the inflammatory lesions [3],PAI-1 mRNA expression (overexpression of PAI-1 in lungs) (PAI-1 mRNA),"IL-6 mRNA expression (IL-6 mRNA [1]; murine plasminogen alone, 6 mg/kg subcutaneously at days 7, 10, 13, 16, 19 and 23, bleomycin-induced mice, day 28, FIG. 9)",IL-6 mRNA expression (IL-6 mRNA [4]),mRNA expression of CTGF (CTGF mRNA),"fibrosis (collagen expression in the inflammatory lesions of the lungs) ([2]; murine plasminogen alone, 6 mg/kg subcutaneously at days 7, 10, 13, 16, 19 and 23)"
"Cc1ccc(=O)n(-c2ccccc2)c1 [pirfenidone, reference compound]",not significantly different,efficient to reduce fibrosis,–,–,–,–,–,–
B1,–,–,significantly reduced,reduced,inhibits IL-6 mRNA expression,significantly reduced,significantly reduced,efficient to reduce fibrosis
